The target of test [1] is GST-Tnp3 DC825 deletion mutant (human) (UniProt Q9Y5L0). The experiment in a line: pull-down; GST-Tnp3, GST-Tnp3 DC825 or GST-Xpo-t held on glutathione-Sepharose 4B beads, with purified HIV-1 vector disrupted by gentle sonication (50 µl), with or without RanQ69L-GTP; binding buffer 50 mM Hepes pH 7.3, 200 mM NaCl, 2 mM Mg(Ac)2, 10 µM GTP; 4°C; silver stain and Western blot with anti-capsid antibody, ImageJ quantification. For orientation: A western blot detects proteins with antibodies after separation by electrophoresis.
GST-Tnp3 DC825 deletion mutant (human), sequence (Q9Y5L0 1-825, stated change not applied): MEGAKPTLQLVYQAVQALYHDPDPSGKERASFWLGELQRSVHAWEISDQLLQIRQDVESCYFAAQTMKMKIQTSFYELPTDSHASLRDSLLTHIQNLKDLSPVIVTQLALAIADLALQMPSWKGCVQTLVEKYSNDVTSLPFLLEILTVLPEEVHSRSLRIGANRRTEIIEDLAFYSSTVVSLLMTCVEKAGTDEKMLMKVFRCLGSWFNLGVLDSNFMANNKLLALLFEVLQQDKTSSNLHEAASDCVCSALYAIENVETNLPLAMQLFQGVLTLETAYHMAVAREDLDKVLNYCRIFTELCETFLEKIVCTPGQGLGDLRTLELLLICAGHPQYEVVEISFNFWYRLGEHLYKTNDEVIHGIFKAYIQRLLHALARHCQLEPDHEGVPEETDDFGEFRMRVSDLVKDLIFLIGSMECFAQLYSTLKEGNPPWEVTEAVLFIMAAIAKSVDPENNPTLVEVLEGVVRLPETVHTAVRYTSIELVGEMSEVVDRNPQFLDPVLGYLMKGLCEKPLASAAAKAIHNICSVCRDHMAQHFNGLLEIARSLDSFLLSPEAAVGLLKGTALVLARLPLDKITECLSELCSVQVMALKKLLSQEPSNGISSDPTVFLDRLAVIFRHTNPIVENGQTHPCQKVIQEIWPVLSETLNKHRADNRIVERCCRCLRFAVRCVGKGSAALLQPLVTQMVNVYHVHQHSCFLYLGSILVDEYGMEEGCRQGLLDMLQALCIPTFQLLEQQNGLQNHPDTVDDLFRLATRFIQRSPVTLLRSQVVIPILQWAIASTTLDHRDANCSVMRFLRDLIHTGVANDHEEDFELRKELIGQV

For test [2], the target named is GST-Tnp3 (Transportin 3), full length (human) (UniProt Q9Y5L0). The test is described as above.
GST-Tnp3 (Transportin 3), full length (human), sequence (Q9Y5L0 whole entry): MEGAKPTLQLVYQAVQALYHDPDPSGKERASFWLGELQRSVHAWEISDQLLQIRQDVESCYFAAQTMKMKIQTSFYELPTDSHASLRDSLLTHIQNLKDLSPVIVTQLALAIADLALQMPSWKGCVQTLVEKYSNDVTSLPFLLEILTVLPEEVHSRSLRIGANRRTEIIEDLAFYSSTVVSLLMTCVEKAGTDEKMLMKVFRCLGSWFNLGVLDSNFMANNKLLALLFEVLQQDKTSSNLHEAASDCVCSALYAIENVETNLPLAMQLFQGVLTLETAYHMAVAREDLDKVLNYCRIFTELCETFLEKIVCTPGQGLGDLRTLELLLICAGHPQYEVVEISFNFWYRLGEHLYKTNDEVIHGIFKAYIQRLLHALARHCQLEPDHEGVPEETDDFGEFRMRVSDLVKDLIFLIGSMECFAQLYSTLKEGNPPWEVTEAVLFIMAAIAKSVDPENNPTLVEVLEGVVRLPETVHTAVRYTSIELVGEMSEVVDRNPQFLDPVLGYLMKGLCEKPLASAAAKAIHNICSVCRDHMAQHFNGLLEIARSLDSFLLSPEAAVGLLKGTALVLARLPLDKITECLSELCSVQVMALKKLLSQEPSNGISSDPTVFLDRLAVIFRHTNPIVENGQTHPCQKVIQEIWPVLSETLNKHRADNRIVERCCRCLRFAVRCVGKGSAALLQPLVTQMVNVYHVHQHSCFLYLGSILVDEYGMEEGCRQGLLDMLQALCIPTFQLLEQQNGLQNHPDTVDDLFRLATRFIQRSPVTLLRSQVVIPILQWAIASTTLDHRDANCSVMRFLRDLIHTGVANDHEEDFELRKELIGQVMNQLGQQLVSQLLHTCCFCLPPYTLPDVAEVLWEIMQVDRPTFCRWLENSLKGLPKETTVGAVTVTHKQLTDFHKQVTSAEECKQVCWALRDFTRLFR

Experimental findings from publication PMC3161976 are described below.

With “HIV-1 capsid protein (CA, p24) of purified HIV-1 vector particles (natural protein)”, in test [1], the fold reduction of binding against full-length Tnp3 was found to be 3 fold. The substance also showed a fold increase of binding with RanGTP against without in test [2] of 2.5 fold.
